Measured values published in paper PMC7447767, “Molecular mechanism of mitochondrial phosphatidate transfer by Ups1” (Communications Biology, 2020).
Where a chain is given by its changes, count along the chain named. Values belong to the binder of their own block, whether it stands above or below them.

Key:
Details in all cases: both partners purified
[1] = molecular target: T1, Ups1 (N-terminal 6x His-tagged full-length Ups1) (Saccharomyces cerevisiae, UniProt Q05776 1-175); assay: SEC; gel filtration of the Ups1/Mdm35 truncation mutants (Supplementary Fig. 8a)
T1 construct: Ups1, Saccharomyces cerevisiae, full length, amplified from genomic DNA; Always handled as the co-expressed complex with Mdm35 or an Mdm35 truncation; also called WT; wild-type Ups1/Mdm35 (Ups1 chain); source: E. coli Trans B, co-expressed with Mdm35 from pETDuet-1, purified (Ni-chelated Sepharose, Superdex 75)
T1 sequence (looked up): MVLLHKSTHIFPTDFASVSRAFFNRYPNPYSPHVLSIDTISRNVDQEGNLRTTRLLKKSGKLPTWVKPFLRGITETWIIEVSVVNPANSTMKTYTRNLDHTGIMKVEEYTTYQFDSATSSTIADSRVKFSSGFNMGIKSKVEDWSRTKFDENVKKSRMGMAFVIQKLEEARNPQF

[2] = molecular target: T2, selenomethionine-substituted Ups1 (Saccharomyces cerevisiae, UniProt Q05776 1-175, selenomethionine-substituted); assay: crystal structure; selenomethionine-substituted Ups1/Mdm35, SAD, 2.9 Å; hanging drop, 16 °C, 8% tacsimate pH 5.0, 20% PEG3350, sodium thiocyanate
T2 construct: Ups1, Saccharomyces cerevisiae, full length, selenomethionine in place of methionine; also called SeMet-labeled Ups1; Ups1A; source: selenomethionine-derived Ups1/Mdm35 complex; expression of the SeMet form not described
T2 sequence (looked up): T1 sequence (looked up)

Ups1-2E mutant = molecular target: T3, Ups1-2E mutant (Saccharomyces cerevisiae, UniProt Q05776 1-175, K140E | R146E); assay: co-sedimentation; liposome co-sedimentation: 20 μM Ups1/Mdm35 or mutants with DOPC/DOPA = 80/20 liposomes (8 mM), 20 mM Tris-HCl pH 7.5, 150 mM NaCl, 1 mM EDTA, 25 °C, 30 min; 250,000 g; Mdm35 in the pellet taken as complexed with liposome-bound Ups1
T3 construct: Ups1, Saccharomyces cerevisiae, mutant of the full-length wild-type construct; limits not restated for the mutant; also called K140E/R146E; source: gene synthesized (Beijing SYKM); E. coli Trans B, purified with Mdm35
T3 sequence (looked up): T1 sequence (looked up) with K140E, R146E

Ups1-3E mutant = molecular target: T4, Ups1-3E mutant (Saccharomyces cerevisiae, UniProt Q05776 1-175, K140E | R146E | K154E); assay: as above
T4 construct: Ups1, Saccharomyces cerevisiae, mutant of the full-length wild-type construct; limits not restated for the mutant; also called K140E/R146E/K154E; source: gene synthesized (Beijing SYKM); E. coli Trans B, purified with Mdm35
T4 sequence (looked up): T1 sequence (looked up) with K140E, R146E, K154E

Ups1-4E mutant = molecular target: T5, Ups1-4E mutant (Saccharomyces cerevisiae, UniProt Q05776 1-175, K140E | R146E | K154E | K166E); assay: as above
T5 construct: Ups1, Saccharomyces cerevisiae, mutant of the full-length wild-type construct; limits not restated for the mutant; also called K140E/R146E/K154E/K166E; source: gene synthesized (Beijing SYKM); E. coli Trans B, purified with Mdm35
T5 sequence (looked up): T1 sequence (looked up) with K140E, R146E, K154E, K166E

Ups1 F69L mutant = molecular target: T6, Ups1 F69L mutant (Saccharomyces cerevisiae, UniProt Q05776 1-175, F69L); assay: as above
T6 construct: Ups1, Saccharomyces cerevisiae, mutant of the full-length wild-type construct; limits not restated for the mutant; source: gene synthesized (Beijing SYKM); E. coli Trans B, purified with Mdm35
T6 sequence (looked up): T1 sequence (looked up) with F69L

binding result [1]: binds
B1: Mdm35ΔC5 (domain or fragment, Saccharomyces cerevisiae, UniProt O60200 1-81, looked up)
chain: MGNIMSASFAPECTDLKTKYDSCFNEWYSEKFLKGKSVENECSKQWYAYTTCVNAALVKQGIKPALDEAREEAPFENGGKL
notes: Mdm35, Saccharomyces cerevisiae, lacking the five C-terminal residues K82–K86; Limit worked out from the stated deletion K82–K86; also called Ups1/Mdm35ΔC5 (Mdm35 chain); source: gene synthesized (Beijing SYKM); E. coli Trans B, purified with Ups1

binding result [2]: binds
B2: selenomethionine-substituted Mdm35 (natural protein, Saccharomyces cerevisiae, UniProt O60200 1-86, looked up)
chain: MGNIMSASFAPECTDLKTKYDSCFNEWYSEKFLKGKSVENECSKQWYAYTTCVNAALVKQGIKPALDEAREEAPFENGGKLKEVDK
modifications: selenomethionine-substituted
notes: Mdm35, Saccharomyces cerevisiae, full length, selenomethionine in place of methionine; also called SeMet-labeled Mdm35; Mdm35A; source: selenomethionine-derived Ups1/Mdm35 complex; expression of the SeMet form not described

binding result (Ups1-2E mutant): binds | binding result (Ups1-3E mutant): binds | binding result (Ups1-4E mutant): binds | binding result (Ups1 F69L mutant): binds
B3: Mdm35 (full-length) (natural protein, Saccharomyces cerevisiae, UniProt O60200 1-86, looked up)
chain: B2 chain
notes: Mdm35, Saccharomyces cerevisiae, full length, amplified from genomic DNA; Two disulfide bridges (C13-C52 and C23-C42) between the αA and αB helices are seen in the structure; also called WT; wild-type Ups1/Mdm35 (Mdm35 chain); source: E. coli Trans B, co-expressed with His-tagged Ups1 from pETDuet-1, purified (Ni-chelated Sepharose, Superdex 75)

binding result [1]: binds
B4: Mdm35ΔC14 (domain or fragment, Saccharomyces cerevisiae, UniProt O60200 1-72, looked up)
chain: MGNIMSASFAPECTDLKTKYDSCFNEWYSEKFLKGKSVENECSKQWYAYTTCVNAALVKQGIKPALDEAREE
notes: Mdm35, Saccharomyces cerevisiae, lacking the 14 C-terminal residues A73–K86; Limit worked out from the stated deletion A73–K86; also called Ups1/Mdm35ΔC14 (Mdm35 chain); source: gene synthesized (Beijing SYKM); E. coli Trans B, purified with Ups1
